In patent publication US20230312723A1, “METHODS AND COMPOSITIONS FOR NON-SMALL CELL LUNG CANCER IMMUNOTHERAPY” (Genentech, Inc., priority 2020, published 2023):
Marks after values point to notes of the source that are not given here.

Key:
[1] = system: patients with Stage IV NSCLC; assay: Phase III study: safety, adverse events graded according to NCI CTCAE v4.0
[2] = system: Stage IV non-squamous or squamous NSCLC; assay: Phase III randomized open-label study of atezolizumab vs platinum-based chemotherapy: efficacy (OS, PFS, ORR, DOR per RECIST v1.1), incl. PD-L1 and bTMB subgroups; format: in vivo, human
Description: As described below, the primary endpoint of this study was improvement in overall survival (OS). Secondary endpoints included progression-free survival (PFS), overall response rate (ORR), and duration of response (DOR), among others.
FIG. 1 illustrates the study design.
At screening, tumor specimens from each potentially eligible patient were tested for PD-L1 expression by a central laboratory using an IHC assay. Only patients who are PD-L1 selected (TC1/2/3 or 101/2/3; corresponding to 1% PD-L1 expressing TCs and 1% of tumor area occupied by PD-L1 expressing ICs) were enrolled. […] Randomization was stratified by sex (male vs. female), ECOG Performance Status (0 vs. 1), histology (non-squamous vs. squamous), and PD-L1 tumor expression by IHC (TC1/2/3 and any IC vs. TC0 and 101/2/3).
Patients randomized to receive pemetrexed in combination with either cisplatin or carboplatin (non-squamous disease) received chemotherapy intravenously on Day 1 of each 21-day cycle for four or six cycles, followed by maintenance therapy with pemetrexed. Patients randomized to receive gemcitabine in combination with either cisplatin or carboplatin (squamous disease) received cisplatin or carboplatin intravenously on Day 1 and gemcitabine intravenously on Days 1 and 8 of each 21-day cycle for four or six cycles, followed by best supportive care. The intended number of cycles planned for the platinum-based induction chemotherapy (i.e., four or six cycles) was specified by the investigator prior to study randomization. Treatment will continue until disease progression, unacceptable toxicity, or death.
All patients underwent tumor assessment at baseline and every 6 weeks (±7 days) for 48 weeks following Cycle 1, Day 1 regardless of treatment delays. […] In the absence of radiographic disease progression per RECIST v1.1, tumor assessments continued regardless of whether patients start a new anti-cancer therapy.
The primary efficacy outcome measure for this study is OS, defined as the time from randomization to death from any cause.
The secondary efficacy outcome measures for this study are as follows: • PFS, defined as the time from randomization to the first occurrence of disease progression, as determined by the investigator with use of RECIST v1.1, or death from any cause, whichever occurs first • Objective response (PR plus CR) as determined by the investigator according to RECIST v1.1 • DOR, defined as the time from the first occurrence of a documented objective response to the time of disease progression, as determined by the investigator with use of RECIST v1.1, or death from any cause, whichever occurs first • OS at 1- and 2-year landmark timepoints • TTD and change from baseline (i.e., improvement or deterioration based on presenting symptomatology) in each of the patient-reported lung cancer symptoms (cough, dyspnea, or chest pain) with use of the SILO scale • TTD in patient-reported lung cancer symptoms, defined as time from randomization to deterioration (10-point change) in any of the following symptom subscales (cough, dyspnea [multi-item scale], and chest pain), whichever occurs first, as measured by the EORTC QLQ-LC13 • OS and investigator-assessed PFS according to RECIST v1.1 in the PD-L1 (defined with SP263 IHC assay) and bTMB subpopulations. The bTMB assay (Foundation Medicine, Cambridge, MA) identifies single nucleotide variants at ≥0.5% across 394 genes and estimates tumor fraction by maximum somatic allele frequency, filters out germline events and counts non-driver somatic mutations to generate a bTMB score. The bTMB score cutoffs evaluated were 0, 6 and […] of 16 (16 mutations/1.1 Mb) equates to approximately 14.5 mutations/Mb.

[3] = system: patients with Stage IV NSCLC; details: in vivo
[4] = All treated patients, Chemo N = 263, Atezo N = 286
[5] = All treated patients, Chemo N = 263, Atezo N = 286, listed as atezolizumab
[6] = TC1/2/3 or IC1/2/3-WT population
[7] = bTMB 6 cutoff, bTMB BEP-WT population

## atezolizumab
[1]; [4]
  AE leading to any treatment withdrawal, % of patients: (6.3%)
  AE leading to any treatment withdrawal, number of patients: 18
  All Deaths, % of patients: 43.7%
  All Deaths, number of patients: 125
  All Grade AE, any cause, % of patients: (90.2%)
  All Grade AE, any cause, number of patients: 258
  Cause of death: Adverse Event, % of patients: 3.8%
  Cause of death: Adverse Event, number of patients: 11
  Cause of death: Other, including deaths collected by public records, % of patients: 3.8%
  Cause of death: Other, including deaths collected by public records, number of patients: 11
  Cause of death: Progressive disease, % of patients: 36.0%
  Cause of death: Progressive disease, number of patients: 103
  Grade 3-4 AE, % of patients: (31.8%)
  Grade 3-4 AE, number of patients: 91
  Grade 5 AE, % of patients: (3.8%)
  Grade 5 AE, number of patients: 11
  Related AE (TRAE), % of patients: (60.5%)
  Related AE, number of patients: 173
  Serious Adverse Event, % of patients: (28.3%)
  Serious Adverse Event, number of patients: 81
  Treatment-Related SAE, % of patients: (8.4%)
  Treatment-Related SAE, number of patients: 24
  Treatment-related Grade 3-4 AE, % of patients: (12.9%)
  Treatment-related Grade 3-4 AE, number of patients: 37
  Treatment-related Grade 5 AE, number of patients: 0
[1]; [5]
  Related AE (TRAE), % of patients: 60.5%
  Treatment-related Grade 3-4 AE, % of patients: 12.9%
[1]; Atezo n = 286, Chemo n = 263
  Treatment-related AE Anemia, All Grades, %: (3.5) %
  Treatment-related AE Asthenia, All Grades, %: (7.3) %
  Treatment-related AE Asthenia, Grade 3-4, %: 0.3%
  Treatment-related AE Constipation, All Grades, %: (3.5) %
  Treatment-related AE Constipation, Grade 3-4, %: 0.3%
  Treatment-related AE Decreased appetite, All Grades, %: (7.0) %
  Treatment-related AE Decreased appetite, Grade 3-4, %: 0.7%
  Treatment-related AE Decreased white blood cell count, All Grades, %: (1.0) %
  Treatment-related AE Fatigue, All Grades, %: (7.7) %
  Treatment-related AE Fatigue, Grade 3-4, %: 0.7%
  Treatment-related AE Hyperkalemia, All Grades, %: (2.1) %
  Treatment-related AE Hyperkalemia, Grade 3-4, %: 1.0%
  Treatment-related AE Hyponatremia, All Grades, %: (1.7) %
  Treatment-related AE Hyponatremia, Grade 3-4, %: 1.0%
  Treatment-related AE Leukopenia, All Grades, %: (1.0) %
  Treatment-related AE Leukopenia, Grade 3-4, %: 0.3%
  Treatment-related AE Nausea, All Grades, %: (7.0) %
  Treatment-related AE Nausea, Grade 3-4, %: 0.3%
  Treatment-related AE Neutropenia, All Grades, %: (1.0) %
  Treatment-related AE Neutropenia, Grade 3-4, %: 0.7%
  Treatment-related AE Pancytopenia, All Grades, %: (0.3) %
  Treatment-related AE Pancytopenia, Grade 3-4, %: 0.3%
  Treatment-related AE Thrombocytopenia, All Grades, %: (1.7) %
  Treatment-related AE Thrombocytopenia, Grade 3-4, %: 0.3%
  Treatment-related AE Vomiting, All Grades, %: (1.4) %
  Treatment-related AE Vomiting, Grade 3-4, %: 0.3%
[1]; Chemo N = 263, Atezo N = 286
  Grade 5 AE: Acute myocardial infarction, %: 0.3%
  Grade 5 AE: Aspiration, %: 0.3%
  Grade 5 AE: COPD, %: 0.3%
  Grade 5 AE: Cardiac arrest, %: 0.3%
  Grade 5 AE: Cardiac disorders, %: 0.7%
  Grade 5 AE: Cerebral infarction, %: 0.3%
  Grade 5 AE: Death, %: 0.7%
  Grade 5 AE: Gastrointestinal disorders, %: 0.3%
  Grade 5 AE: General disorders and administration site conditions, %: 0.7%
  Grade 5 AE: Infections and infestations, %: 0.3%
  Grade 5 AE: Mechanical ileus, %: 0.3%
  Grade 5 AE: Nervous system disorders, %: 0.3%
  Grade 5 AE: Product issues, Device occlusion, %: 0.3%
  Grade 5 AE: Pulmonary embolism, %: 0.3%
  Grade 5 AE: Respiratory, thoracic and mediastinal disorders, %: 1.0%
  Grade 5 AE: Sepsis, %: 0.3%
  Grade 5 AE: Total number of patients: 11
  Grade 5 AE: Total, % of patients: 3.8%
[1]; safety population: 286 patients Arm A, 263 Arm B
  Safety profile compared to platinum-based chemotherapy (in words): favorable safety profile
[2]; PD-L1-positive BEP subgroups
  OS vs chemotherapy (in words): OS improvement favoring atezolizumab vs chemotherapy
[2]; [6]
  Median OS: 17.5 months
  OS HR, stratified (atezo vs chemo): 0.832
[2]; TC2/3 or IC2/3-WT population
  Median OS: 18.2 months
  OS HR, stratified (atezo vs chemo): 0.717
[2]; TC3 or IC3-WT population
  Confirmed ORR: 38.3% (29.08,
  Overall Survival, Median: 20.2 months
  Overall Survival, Stratified HR (atezo vs chemo): 0.595
  Overall Survival, improvement of median vs chemo: 7.1 months
  Progression-Free Survival, Median: 8.1 months
  Progression-Free Survival, Stratified HR (atezo vs chemo): 0.630
  Progression-Free Survival, improvement of median vs chemo: 3.1 months
[2]; across PD-L1 BEP subgroups
  PFS vs chemotherapy (in words): PFS improvement with atezolizumab was observed
[2]; [7]
  OS unstratified HR (atezolizumab vs chemotherapy): 0.75
  PFS HR (atezolizumab vs chemotherapy): 0.55
[3]
  AESI Adrenal insufficiency Gr3-4, patients with event: 0
  AESI Adrenal insufficiency, patients with event: 2
  AESI Adrenal insufficiency, percent of patients: (0.7%)
  AESI Colitis Gr3-4, patients with event: 2
  AESI Colitis Gr3-4, percent of patients: (0.7%)
  AESI Colitis, patients with event: 3
  AESI Colitis, percent of patients: (1.0%)
  AESI Diabetes Mellitus Gr3-4, patients with event: 1
  AESI Diabetes Mellitus Gr3-4, percent of patients: (0.3%)
  AESI Diabetes Mellitus, patients with event: 2
  AESI Diabetes Mellitus, percent of patients: (0.7%)
  AESI Hepatitis Gr3-4, patients with event: 12
  AESI Hepatitis Gr3-4, percent of patients: (4.2%)*
  AESI Hepatitis, patients with event: 46
  AESI Hepatitis, percent of patients: (16.1%)
  AESI Hyperthyroidism Gr3-4, patients with event: 0
  AESI Hyperthyroidism, patients with event: 13
  AESI Hyperthyroidism, percent of patients: (4.5%)
  AESI Hypothyroidism Gr3-4, patients with event: 0
  AESI Hypothyroidism, patients with event: 27
  AESI Hypothyroidism, percent of patients: (9.4%)
  AESI Infusion-Related Reactions Gr3-4, patients with event: 0
  AESI Infusion-Related Reactions, patients with event: 4
  AESI Infusion-Related Reactions, percent of patients: (1.4%)
  AESI Myocarditis Gr3-4, patients with event: 1
  AESI Myocarditis Gr3-4, percent of patients: (0.3%)
  AESI Myocarditis, patients with event: 1
  AESI Myocarditis, percent of patients: (0.3%)
  AESI Myositis Gr3-4, patients with event: 0
  AESI Myositis, patients with event: 1
  AESI Myositis, percent of patients: (0.3%)
  AESI Nephritis Gr3-4, patients with event: 0
  AESI Nephritis, patients with event: 1
  AESI Nephritis, percent of patients: (0.3%)
  AESI Pneumonitis Gr3-4, patients with event: 2
  AESI Pneumonitis Gr3-4, percent of patients: (0.7%)
  AESI Pneumonitis, patients with event: 11
  AESI Pneumonitis, percent of patients: (3.8%)
  AESI Rash Gr3-4, patients with event: 3
  AESI Rash Gr3-4, percent of patients: (1.0%)
  AESI Rash, patients with event: 44
  AESI Rash, percent of patients: (15.4%)
  AESI Severe Cutaneous Adverse Reaction Gr3-4, patients with event: 0
  AESI Severe Cutaneous Adverse Reaction, patients with event: 2
  AESI Severe Cutaneous Adverse Reaction, percent of patients: (0.7%)
  AESI Vasculitis Gr3-4, patients with event: 1
  AESI Vasculitis Gr3-4, percent of patients: (0.3%)
  AESI Vasculitis, patients with event: 1
  AESI Vasculitis, percent of patients: (0.3%)
  Immune-mediated Adrenal insufficiency requiring systemic corticosteroids, %: (0.3) %
  Immune-mediated Diabetes mellitus requiring systemic corticosteroids, %: (0.3) %
  Immune-mediated Hypothyroidism requiring systemic corticosteroids, %: (0.3) %
  Immune-mediated Infusion-related reaction requiring systemic corticosteroids, %: (0.3) %
  Immune-mediated Nephritis requiring systemic corticosteroids, %: (0.3) %
